Experimental data taken from PMC2807882, “Conservation of DNA-binding specificity and oligomerisation properties within the p53 family”.

T1: ΔNp63γ (Homo sapiens, UniProt Q9H3D4-6 1-393)
T1 sequence: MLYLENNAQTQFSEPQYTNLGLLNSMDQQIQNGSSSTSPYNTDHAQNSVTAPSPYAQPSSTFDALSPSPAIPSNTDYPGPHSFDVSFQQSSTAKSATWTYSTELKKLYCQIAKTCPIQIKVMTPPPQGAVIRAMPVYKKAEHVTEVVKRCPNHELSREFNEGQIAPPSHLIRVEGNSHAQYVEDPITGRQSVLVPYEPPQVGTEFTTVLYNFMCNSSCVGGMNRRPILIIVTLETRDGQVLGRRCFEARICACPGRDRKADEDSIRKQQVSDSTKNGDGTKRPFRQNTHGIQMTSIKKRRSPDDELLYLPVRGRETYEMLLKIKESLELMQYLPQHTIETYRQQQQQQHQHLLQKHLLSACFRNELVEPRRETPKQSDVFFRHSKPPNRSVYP

T2: ΔNp63β (Homo sapiens, UniProt Q9H3D4-4 1-461)
T2 sequence: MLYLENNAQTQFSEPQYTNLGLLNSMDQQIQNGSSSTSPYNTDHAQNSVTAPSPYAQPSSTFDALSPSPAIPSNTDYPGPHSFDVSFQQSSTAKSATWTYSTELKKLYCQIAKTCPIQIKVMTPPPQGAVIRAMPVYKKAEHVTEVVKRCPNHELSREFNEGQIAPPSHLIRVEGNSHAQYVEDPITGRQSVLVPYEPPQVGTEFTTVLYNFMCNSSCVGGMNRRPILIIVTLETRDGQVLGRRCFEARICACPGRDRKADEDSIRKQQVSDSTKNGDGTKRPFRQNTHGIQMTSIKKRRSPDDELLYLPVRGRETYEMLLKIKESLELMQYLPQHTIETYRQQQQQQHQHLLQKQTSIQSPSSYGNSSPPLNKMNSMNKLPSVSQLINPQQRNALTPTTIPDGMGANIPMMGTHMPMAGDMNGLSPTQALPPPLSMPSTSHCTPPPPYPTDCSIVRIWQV

T3: Drp53 (Danio rerio, UniProt P79734 1-373)
T3 sequence: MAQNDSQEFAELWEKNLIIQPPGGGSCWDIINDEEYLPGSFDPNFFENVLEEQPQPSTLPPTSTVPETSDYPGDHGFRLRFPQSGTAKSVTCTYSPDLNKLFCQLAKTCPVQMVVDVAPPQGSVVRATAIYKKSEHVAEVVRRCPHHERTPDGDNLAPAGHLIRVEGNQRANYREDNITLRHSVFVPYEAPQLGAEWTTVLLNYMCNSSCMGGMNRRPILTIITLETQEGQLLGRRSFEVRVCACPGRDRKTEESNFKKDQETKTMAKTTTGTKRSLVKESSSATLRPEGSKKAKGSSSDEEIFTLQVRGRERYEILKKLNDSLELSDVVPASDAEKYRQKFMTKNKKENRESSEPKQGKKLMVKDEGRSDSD

T4: ΔNp63α (Homo sapiens, UniProt Q9H3D4-2 1-586)
T4 sequence: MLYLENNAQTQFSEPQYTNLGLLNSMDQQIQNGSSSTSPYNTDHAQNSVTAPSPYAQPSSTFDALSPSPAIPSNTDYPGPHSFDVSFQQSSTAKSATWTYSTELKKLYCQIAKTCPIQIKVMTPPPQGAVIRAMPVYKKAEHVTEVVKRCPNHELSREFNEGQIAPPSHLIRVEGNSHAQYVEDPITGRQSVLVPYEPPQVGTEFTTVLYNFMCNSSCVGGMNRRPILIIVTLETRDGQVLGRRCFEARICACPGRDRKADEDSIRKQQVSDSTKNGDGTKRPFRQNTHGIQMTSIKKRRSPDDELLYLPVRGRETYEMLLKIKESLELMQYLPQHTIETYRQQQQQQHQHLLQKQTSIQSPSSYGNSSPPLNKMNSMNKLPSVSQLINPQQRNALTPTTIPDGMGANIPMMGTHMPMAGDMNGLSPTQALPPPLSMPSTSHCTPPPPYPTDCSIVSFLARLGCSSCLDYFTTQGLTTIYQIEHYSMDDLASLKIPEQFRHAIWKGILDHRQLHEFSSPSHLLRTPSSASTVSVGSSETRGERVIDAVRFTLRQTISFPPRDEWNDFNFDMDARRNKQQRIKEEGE


Legend:
Xlp53 [1] = target: T5, Xlp53 (Xenopus laevis, UniProt Q7T1D0 1-362); experiment: fluorescence anisotropy direct titration; 25 mM sodium phosphate (purification buffer pH 7.2), 225 mM NaCl, 10% v/v glycerol, 5 mM DTT, 0.2 mg/mL BSA, 22 C; settings: protein: recombinant; tags: N-terminal 6xHis-lipoyl-TEV tag, cleaved; chain copies: 4; label: 5'-Alexa488
T5 sequence (Q7T1D0 entry or part of it): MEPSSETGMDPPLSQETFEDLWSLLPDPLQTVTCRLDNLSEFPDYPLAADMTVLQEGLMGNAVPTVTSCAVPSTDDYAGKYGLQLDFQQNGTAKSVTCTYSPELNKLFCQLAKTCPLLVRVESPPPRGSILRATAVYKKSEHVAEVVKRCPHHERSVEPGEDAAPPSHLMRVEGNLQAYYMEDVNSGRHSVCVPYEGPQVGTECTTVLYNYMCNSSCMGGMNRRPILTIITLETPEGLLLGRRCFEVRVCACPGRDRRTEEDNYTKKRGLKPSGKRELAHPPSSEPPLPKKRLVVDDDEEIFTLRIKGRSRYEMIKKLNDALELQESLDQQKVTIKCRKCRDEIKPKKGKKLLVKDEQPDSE

ΔNp63γ [2] = target: T1, ΔNp63γ; experiment: as above; settings: protein: recombinant; tags: N-terminal 6xHis-lipoyl-TEV tag, cleaved; chain copies: 4; label: 5'-Alexa488
Mmp53 = Mmp53 (Mus musculus, UniProt P02340 1-390); experiment: as above; settings: protein: recombinant; tags: N-terminal 6xHis-lipoyl-TEV tag, cleaved; chain copies: 4; label: 5'-Alexa488
Sequence of Mmp53 (P02340 whole entry): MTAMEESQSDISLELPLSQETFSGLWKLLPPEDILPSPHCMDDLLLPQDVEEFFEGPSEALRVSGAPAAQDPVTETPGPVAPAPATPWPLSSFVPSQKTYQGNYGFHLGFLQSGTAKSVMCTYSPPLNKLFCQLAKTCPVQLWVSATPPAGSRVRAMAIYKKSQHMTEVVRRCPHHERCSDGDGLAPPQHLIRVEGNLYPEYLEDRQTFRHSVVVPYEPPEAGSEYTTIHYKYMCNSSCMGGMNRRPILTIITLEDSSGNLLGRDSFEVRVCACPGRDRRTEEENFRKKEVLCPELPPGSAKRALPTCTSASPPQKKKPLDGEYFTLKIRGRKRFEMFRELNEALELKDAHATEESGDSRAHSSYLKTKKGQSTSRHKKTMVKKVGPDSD

ΔNp63β = target: T2, ΔNp63β; experiment: as above; settings: protein: recombinant; tags: N-terminal 6xHis-lipoyl-TEV tag, cleaved; chain copies: 4; label: 5'-Alexa488
Drp53 = target: T3, Drp53; experiment: as above; settings: protein: recombinant; tags: N-terminal 6xHis-lipoyl-TEV tag, cleaved; chain copies: 4; label: 5'-Alexa488
Xlp53 [3] = target: T5, Xlp53; experiment: anisotropy competition; 25 mM NaPi, 225 mM NaCl, 10% v/v glycerol, 5 mM DTT, 0.2 mg/mL BSA, 22°C; 20 nM labelled DNA; pH not stated for the binding assay; settings: protein: recombinant; tags: N-terminal 6xHis-lipoyl-TEV tag, cleaved; chain copies: 4
ΔNp63γ [4] = target: T1, ΔNp63γ; experiment: as above; settings: protein: recombinant; tags: N-terminal 6xHis-lipoyl-TEV tag, cleaved; chain copies: 4
ΔNp63α = target: T4, ΔNp63α; experiment: as above; settings: protein: recombinant; tags: N-terminal 6xHis-lipoyl-TEV tag, cleaved; chain copies: 4

Binder	Kd (Xlp53 [1])	Kd (ΔNp63γ [2])	Kd (Mmp53)	Kd (ΔNp63β)	Kd (Drp53)	Kd (Xlp53 [3])	Kd (ΔNp63γ [4])	Kd (ΔNp63α)
Ref_Alexa488 (dsDNA) DNA 1: GGACATGTCCGGACATGTCC DNA 2: GGACATGTCCGGACATGTCC	47.9 nM	67.6 nM	95.5 nM	74.1 nM	63.1 nM	–	–	–
Ref competitor (dsDNA) DNA 1: CGCGGACATGTCCGGACATGTCCCGC DNA 2: GCGGGACATGTCCGGACATGTCCGCG	–	–	–	–	–	-7.08 log10(M)	-7.48 log10(M)	-7.21 log10(M)
